According to publication doi:10.1101/489898:

Target: horse liver alcohol dehydrogenase (horse)
Assay: cryo-EM structure

## horse liver alcohol dehydrogenase (enzyme)
  stoichiometry N: 2
